Assay results: publication PMC4230322

Substrate: CC/C(=C(\c1ccc(O)cc1)c1ccc(OCCN(C)C)cc1)c1ccccc1
Test: Initial rate kinetics of TAM sulfation
Format: biochemical, human
Details: other: TAM as substrate, pH 7.2, 25.0 °C

B1: SULT1A1 (Homo sapiens) (protein)
chain: MELIQDTSRPPLEYVKGVPLIKYFAEALGPLQSFQARPDDLLISTYPKSGTTWVSQILDMIYQGGDLEKCHRAPIFMRVPFLEFKAPGIPSGMETLKDTPAPRLLKTHLPLALLPQTLLDQKVKVVYVARNAKDVAVSYYHFYHMAKVHPEPGTWDSFLEKFMVGEVSYGSWYQHVQEWWELSRTHPVLYLFYEDMKENPKREIQKILEFVGRSLPEETVDFVVQHTSFKEMKKNPMTNYTTVPQEFMDHSISPFMRKGMAGDWKTTFTVAQNERFDADYAEKMAGCSLSFRSEL
- kcat (E·(PAP)2 form, [PAPS] 250 μM): 11 s⁻¹
- Km (E·PAP form, [PAPS] 4.0 μM): 14 (1.0) μM
- kcat (E·PAP form, [PAPS] 4.0 μM): 2 s⁻¹
